From patent US20230050038A1 (WASHINGTON UNIVERSITY, published 2023)

Tests used:
[1] = target: T1, PDGFRβ soluble extracellular domain (UniProt P09619 33-532, limits assumed, fluorescently labeled); test: combinatorial yeast display library enriched by FACS for high binding signal to PDGFRβ ectodomain
T1 construct: extracellular domain; also called PDGFRβ ectodomain; soluble PDGFRβ

[2] = target: T1, PDGFRβ soluble extracellular domain; test: yeast surface display, flow cytometry with soluble PDGFRβ

T1 sequence (P09619 33-532 limits assumed): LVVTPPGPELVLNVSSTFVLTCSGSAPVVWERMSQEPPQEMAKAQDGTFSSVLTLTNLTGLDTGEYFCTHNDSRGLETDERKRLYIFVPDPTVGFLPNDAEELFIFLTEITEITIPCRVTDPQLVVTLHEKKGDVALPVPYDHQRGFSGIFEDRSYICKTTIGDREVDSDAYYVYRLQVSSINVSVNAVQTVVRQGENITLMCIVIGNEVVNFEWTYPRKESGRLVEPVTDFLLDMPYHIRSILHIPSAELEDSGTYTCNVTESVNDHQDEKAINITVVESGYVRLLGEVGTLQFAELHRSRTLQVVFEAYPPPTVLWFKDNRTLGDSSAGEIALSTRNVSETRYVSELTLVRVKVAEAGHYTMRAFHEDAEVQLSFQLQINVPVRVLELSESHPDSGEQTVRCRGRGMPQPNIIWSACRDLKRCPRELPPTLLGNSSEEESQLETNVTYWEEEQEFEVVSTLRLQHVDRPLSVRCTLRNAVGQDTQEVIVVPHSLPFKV

B1: Clone-01, PDGF-B variant displayed on the yeast surface (ligand)
chain: SLGSLTIAEPAMIAECKTRTELFRISRNLIDRTNANFLVWPPCVEVQRCSGCCNNRYVQCRPTQVQLRPVQVRKIEFVRKKPIFKKATVTLEDHLACRCETVAA
notes: not shown: Aga2p fusion partner, glycine-rich linkers and c-myc tag
[1]
  binding result: binds

B2: Clone-08, PDGF-B variant displayed on the yeast surface (ligand)
chain: SLGSLTIAEPAMIAECKTRTELFRISRNLIDRTNANFLVWPPCVEVQRCSGCCNNRYVQCRPTQVQLRPVQVRKIEIVRKKPIFKKATVTLEDHLACRCETVAA
notes: as for B1
[1]
  binding result: binds

B3: Clone-03, PDGF-B variant displayed on the yeast surface (ligand)
chain: SLGSLTIAEPAMIAECKTRTELFRISRNLIDRTNANFLVWPPCVEVQRCSGCCNNRYVQCRPTQVQLRPVQVRKIEFVRKKPIFKKATVTLEDHLACKCEKVAA
notes: as for B1
[1]
  binding result: binds

B4: PDGF-B-cons (consensus sequence), displayed on the yeast surface (ligand)
chain: SLGSLTIAEPAMIAECKTRTEVFRISRNLIDRTNANFLVWPPCVEVQRCSGCCNNRYVQCRPTQVQLRPVQVRKIEFVRKKPIFKKATVTLEDHLACRCETVAA
notes: Consensus of the isolated clones, tested on the yeast surface; also called PDGF-BB-cons; not shown: Aga2p fusion partner, glycine-rich linkers and c-myc tag
[2]
  binding result: binds

B5: Clone-02, PDGF-B variant displayed on the yeast surface (ligand)
chain: SLGSLTIAEPAMIAECNTRTEVFRISRNLIDRTNANFLVWPPCVEVQRCSGCCNNRNVQCRPTQVQLRPVQVRKIEFVRKKPIFKKATVTLEDHLACRCEKVAA
notes: as for B1
[1]
  binding result: binds

B6: Clone-07, PDGF-B variant displayed on the yeast surface (ligand)
chain: SLGSLTIAEPAMIAECKTRTEVFEISRNLIDRTNANFLVWPPCVEVQRCSGCCNNRNVQCRPTQVQLRPVQVRKIEFVRKKPIFKKATVTLEDHLACKCETVAA
notes: as for B1
[1]
  binding result: binds
